Reference: the supplement of paper PMC10567573

B1: APBB1IP (parent)
chain: PPEPLSQVSMWDQRWQDHQPLLPI

Variants of: B1
Test: protein stability index of a GFP-peptide fusion (GPS, HEK-293T) (PSI 1-6); higher = more stable
Settings: c terminus: a fixed tail appended
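Further: lentivirally expressed fusions sorted by FACS into six bins by GFP to DsRed ratio, PSI derived from sequencing read proportions per bin multiplied by bin number.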

Protein stability index: each site, then its substitutions
E3: A 2.87, G 3.06, V 3.46, R 3.18, L 3.07, Y 2.27, S 3.01, K 3.84, D 3.34, H 2.74, W 2.32, F 2.4, I 2.48, Q 2.77, N 3.56, M 2.94, C 2.48
W15: N 3.7, H 4.17, T 4.39, A 3.88, M 4.02, Y 3.14, R 3.41, E 4.03, L 3.28, K 4.05, G 3.62, Q 4.36, V 3.93, F 3.62, I 3.65, D 4.34, P 3.9, S 3.95, C 3.39
D12: Q 2.11, T 3.07, I 2.48, K 3.37, G 2.15, Y 2.31, A 2.64, S 2.73, V 2.23, P 2.89, E 2.64, W 1.85, N 2.82, R 2.9, C 2.34, L 2.22, F 2.13, H 2.6, M 2.33
R14: G 3.98, F 2.86, C 2.79, P 2.9, E 3.74, L 3.01, V 2.92, K 3.06, I 3.14, T 3.39, Q 2.88, A 2.75, W 3.29, D 3.59, S 3.84, N 3.86, H 3.19, M 2.68, Y 3.12
H18: G 3.55, S 3.11, A 2.79, D 4.05, E 4.14, V 2.83, L 3.09, Q 3.01, M 2.71, P 3.34, K 3.1, T 3.44, C 3.12, N 2.97, F 2.4, I 2.69, R 2.74
D17: I 2.57, P 3.23, F 2.08, L 3.26, M 3.24, H 2.44, T 2.57, K 2.78, E 2.97, Y 2.25, R 2.91, C 2.6, G 2.81, W 2.79, A 2.5, V 2.54, S 2.53, N 3.15, Q 2.57
Q13: H 2.79, I 2.72, E 3.56, P 2.77, G 2.63, K 2.76, C 2.56, D 3.51, R 2.6, M 3.46, A 2.54, T 2.78, V 2.49, F 2.4, N 3.5, W 2.91, L 2.16, Y 2.51, S 3.29
Q7: C 3.13, F 2.95, G 3.25, H 3.61, D 2.97, L 2.85, T 3.3, P 3.25, Y 2.27, K 2.34, W 2.05, M 2.74, N 3.14, E 3.56, A 3.47, I 3.07, V 3.33, R 2.93, S 2.81
M10: H 3.42, V 3.36, W 3.12, R 3.37, C 3.52, L 3.16, K 2.92, E 3.98, S 3.35, T 2.87, N 3.54, F 2.94, P 3.87, Y 2.51, A 3.52, I 2.79, D 4.12, G 3.3, Q 3.2
P4: T 3.1, N 2.93, W 2.3, R 2.55, H 3.22, G 2.79, F 2.44, M 2.79, C 2.51, D 3.56, A 3.05, Y 2.87, I 2.52, L 2.54, V 2.61, Q 3.34, K 2.55, S 2.61, E 3.34
S6: H 2.71, G 2.9, T 2.76, Q 3.28, C 2.46, V 2.73, K 2.81, Y 2.09, P 3.65, E 3.15, R 3.36, M 2.82, A 3.09, N 2.93, L 2.85, D 3.45, F 2.23, I 2.71
S9: E 3.56, T 2.99, H 3.22, P 3.16, G 3.35, R 3.27, M 3.27, C 2.34, F 2.95, D 3.55, A 3.4, N 3.25, W 2.62, I 2.86, Y 2.57, L 2.84, V 3.35, K 3.09, Q 3.28
P2: D 2.95, S 2.83, C 2.44, L 2.09, T 2.69, V 3.11, Y 2.46, R 2.5, N 3.09, H 2.65, K 2.83, Q 2.52, I 2.42, G 2.58, E 3.02, M 2.38, A 2.71, F 1.92, W 2.07
W11: M 3.57, A 4.11, L 3.77, H 3.83, S 4.04, E 4.18, C 3.16, Q 4.25, N 4.06, F 3.55, T 3.73, V 3.9, G 4.18, I 3.1, Y 3.51, D 4.4, P 3.08, R 3.4
P1: Y 1.72, H 3.07, D 3.31, T 3.37, L 2.02, F 2.17, S 2.87, R 2.54, K 2.73, W 2.48, V 2.23, I 2.39, N 2.87, E 2.84, G 1.94, M 3.28, Q 2.89
V8: A 3.02, C 2.22, L 2.77, Y 2.57, P 3.12, N 3.36, E 3.48, M 3.22, D 4.03, S 3.52, K 3.25, G 3.38, W 2.21, T 2.9, Q 2.9, F 2.51, I 3.25, H 3.21, R 2.83
Q16: F 2.83, D 3.52, G 2.98, E 2.92, W 2.73, V 2.7, K 3.06, A 2.23, N 2.85, S 2.61, L 2.46, T 2.46, P 3.84, I 2.72, Y 2.98, C 2.6, H 2.53, M 2.99, R 2.68
L5: C 3.75, M 2.88, D 3.58, R 3.62, S 3.26, A 3.74, N 3.31, H 3.54, P 3.88, G 3.05, W 2.2, V 2.99, T 3.19, K 2.71, E 3.57, Y 2.71, I 2.72, F 3, Q 3.53
